{
  "source": "paper PMC10235082",
  "key": {"human FcγRIA (human)": {"target": "human FcγRIA (human) (UniProt P12314)", "sequence (P12314 16-292)": "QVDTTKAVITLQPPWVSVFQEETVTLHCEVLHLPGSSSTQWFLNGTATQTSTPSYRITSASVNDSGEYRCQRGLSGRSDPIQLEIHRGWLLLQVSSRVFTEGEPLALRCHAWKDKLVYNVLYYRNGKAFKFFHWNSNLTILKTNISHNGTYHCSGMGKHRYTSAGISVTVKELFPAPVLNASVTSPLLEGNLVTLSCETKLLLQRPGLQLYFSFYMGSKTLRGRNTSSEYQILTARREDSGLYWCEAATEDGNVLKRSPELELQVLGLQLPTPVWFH", "test": "SPR; Biacore T200; FcγRs immobilised on CM5 sensor chip, IVIG or rhIgG1 Fc injected; three-fold serial dilution (FcγRIA from 300 nM; FcγRIIA from 20 μM; FcγRIIIA from 3 μM IVIG and 300 nM hIgG1 Fc); regeneration 10 mM glycine; single cycle kinetics model"}, "[1]": {"target": "human FcγRIIIA F176V (human) (UniProt P08637)", "sequence (P08637 17-208 F176V)": "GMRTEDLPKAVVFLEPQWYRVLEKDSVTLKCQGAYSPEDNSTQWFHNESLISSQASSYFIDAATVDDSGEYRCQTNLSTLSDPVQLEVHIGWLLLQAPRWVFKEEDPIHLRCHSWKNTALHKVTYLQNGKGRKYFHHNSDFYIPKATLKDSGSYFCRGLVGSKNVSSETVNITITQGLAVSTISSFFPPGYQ", "test": "SPR; Biacore T200; FcγRs immobilised on CM5 sensor chip, IVIG or rhIgG1 Fc injected; three-fold serial dilution (FcγRIA from 300 nM; FcγRIIA from 20 μM; FcγRIIIA from 3 μM IVIG and 300 nM hIgG1 Fc); regeneration 10 mM glycine; single cycle kinetics model"}, "human FcRn (human)": {"target": "human FcRn (human) (UniProt P55899)", "sequence (P55899 24-297, chain 1 of 2)": "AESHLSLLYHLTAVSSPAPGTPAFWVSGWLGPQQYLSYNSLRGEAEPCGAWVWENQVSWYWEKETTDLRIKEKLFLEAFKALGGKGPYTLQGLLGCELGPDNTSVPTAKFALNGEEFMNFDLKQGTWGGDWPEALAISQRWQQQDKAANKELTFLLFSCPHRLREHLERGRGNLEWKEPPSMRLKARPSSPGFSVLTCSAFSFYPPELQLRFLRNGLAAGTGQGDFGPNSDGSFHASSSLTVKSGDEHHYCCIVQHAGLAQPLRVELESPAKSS", "sequence (P61769 21-119, chain 2 of 2, further chain)": "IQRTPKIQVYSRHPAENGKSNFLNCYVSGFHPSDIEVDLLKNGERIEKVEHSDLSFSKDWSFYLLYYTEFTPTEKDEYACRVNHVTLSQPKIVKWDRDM", "test": "SPR; Biacore T200; FcRn immobilised on CM5 sensor chip, IVIG (from 500 nM) or rhIgG1 Fc (from 250 nM) injected, two-fold serial dilution; regeneration 100 mM Tris-HCl; multicycle kinetics model (methods), steady state equilibrium model (legend of Fig. 4)"}},
  "note": "pKd: −log10 of the molar value.",
  "data": [
    {"substance": "recombinant human IgG1 Fc derived from ALB::hIgG1 Fc genome-edited chickens (domain or fragment)", "values": [
      {"measurement": "pKd", "setting": "human FcγRIA (human)", "result": 8.89},
      {"measurement": "pKd", "setting": "[1]", "result": 8.00},
      {"measurement": "pKd", "setting": "human FcRn (human)", "result": 8.04}
    ]}
  ]
}
